{"source": "patent US20240239898A1", "about": "(published 2024)", "key": {"[1]": {"target": "recombinant human FcRn (heterodimer of FcRn heavy chain and beta2-microglobulin) (human) (UniProt P55899)", "sequence (P55899 24-297 limits assumed, chain 1 of 2)": "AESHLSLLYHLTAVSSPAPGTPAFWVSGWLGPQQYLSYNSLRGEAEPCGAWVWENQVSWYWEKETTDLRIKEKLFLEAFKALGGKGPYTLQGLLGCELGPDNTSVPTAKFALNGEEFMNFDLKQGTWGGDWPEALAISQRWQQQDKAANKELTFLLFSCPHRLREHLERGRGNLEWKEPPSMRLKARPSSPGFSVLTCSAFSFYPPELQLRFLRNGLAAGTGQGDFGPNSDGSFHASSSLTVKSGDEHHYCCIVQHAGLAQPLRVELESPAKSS", "sequence (P61769 21-119 limits assumed, chain 2 of 2, further chain)": "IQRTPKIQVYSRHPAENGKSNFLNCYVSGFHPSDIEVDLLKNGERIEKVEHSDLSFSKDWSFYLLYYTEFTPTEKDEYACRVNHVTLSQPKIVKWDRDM", "assay": "BLI (Octet), biotinylated human FcRn on streptavidin sensors, pH 6, 1:1 model"}, "[2]": {"target": "T1, recombinant human FcRn (heterodimer of FcRn heavy chain and beta2-microglobulin) (human, UniProt P55899 24-297; P61769 21-119, limits assumed, biotinylated for the Octet assay (site not stated))", "T1 construct": "In-house recombinant heterodimeric FcRn; captured as biotinylated protein on streptavidin sensors for BLI; also called hFcRn; Fc neonatal receptor", "T1 sequence (P55899 24-297 limits assumed, chain 1 of 2)": "as the sequence (P55899 24-297 limits assumed, chain 1 of 2) above", "T1 sequence (P61769 21-119 limits assumed, chain 2 of 2)": "as the sequence (P61769 21-119 limits assumed, chain 2 of 2, further chain) above", "assay": "BLI (Octet) on recombinant FcRn, pH 6 against neutral pH", "procedure": "(§1) Octet binding analysis. […] Biotinylated FcRn at 1 μg/mL in PBS buffer (pH 7.4) or 100 mM MES buffer (pH 6.0), with 3 mg/mL bovine serum albumin, 0.05% (vol/vol) and Tween 20 (1× Kinetics Buffer; ForteBio), were captured on streptavidin biosensors (ForteBio). The loaded biosensors were washed with assay buffer to remove any unbound protein, followed by association and dissociation measurements with serial dilutions of the different Fc variants or Fc fusion constructs. Octet software (version 7.2) was used to calculate kinetic parameters (kₒₙ and koff) and apparent affinities (KD) from a nonlinear fit based on the 1:1 binding kinetic model of the data, with the equation"}, "[3]": {"target": "T1, recombinant human FcRn (heterodimer of …)", "assay": "BLI (Octet), biotinylated human FcRn on streptavidin sensors, pH 6, 1:1 model", "procedure": "as §1"}}}
{"molecule": "MFc1 (C4), monomeric IgG4 Fc variant with YTE mutations (from UniProt P01861 111-327)", "values": [{"measurement": "Kd", "setting": "[1]", "value": 370, "unit": "nM"}]}
{"molecule": "MFc4 (T1-S354E), monomeric IgG4 Fc variant (other, Engineered IgG4 CH2-CH3 with the CH3 monomer set, S354E and the half-life mutation set around residues 432-438 in place of YTE) GPSVFLFPPKPKDTLMISRTPEVTCVVVDVSQEDPEVQFNWYVDGVEVHNAKTKPREEQFNSTYRVVSVLTVLHQDWLNGKEYKCKVSNKGLPSSIEKTISKAKGQPREPQVYTFPPEQEEMTKNQVSLRCLVKGFYPSDIAVEWESNGQPENNYKTTKPVLDSDGSFRLESRLTVDKSRWQEGNVFSCSVMHEACSYHLCKSLSLSL", "values": [{"measurement": "fold decrease from pH 6 binding to neutral pH binding", "setting": "[2]", "value": "~50", "unit": "fold"}, {"measurement": "Kd", "setting": "[3]", "value": 5, "unit": "nM"}]}
{"molecule": "MFc2 (C4n), monomeric IgG4 Fc variant with no YTE mutations (other) GPSVFLFPPKPKDTLMISRTPEVTCVVVDVSQEDPEVQFNWYVDGVEVHNAKTKPREEQFNSTYRVVSVLTVLHQDWLNGKEYKCKVSNKGLPSSIEKTISKAKGQPREPQVYTFPPSQEEMTKNQVSLRCLVKGFYPSDIAVEWESNGQPENNYKTTKPVLDSDGSFRLESRLTVDKSRWQEGNVFSCSVMHEALHNHYTQKSLSLSL", "values": [{"measurement": "Kd", "setting": "[3]", "value": 3560, "unit": "nM"}]}
{"molecule": "MFc3, the S354E point mutant of MFc1 (other) GPSVFLFPPKPKDTLYITREPEVTCVVVDVSQEDPEVQFNWYVDGVEVHNAKTKPREEQFNSTYRVVSVLTVLHQDWLNGKEYKCKVSNKGLPSSIEKTISKAKGQPREPQVYTFPPEQEEMTKNQVSLRCLVKGFYPSDIAVEWESNGQPENNYKTTKPVLDSDGSFRLESRLTVDKSRWQEGNVFSCSVMHEALHNHYTQKSLSLSL", "values": [{"measurement": "fold decrease from pH 6 binding to neutral pH binding", "setting": "[2]", "value": "~50", "unit": "fold"}, {"measurement": "Kd", "setting": "[3]", "value": 330, "unit": "nM"}]}
